Source: patent publication US20240124560A1 (Scripps Research, published 2024)
Residue numbers refer to the chain shown, from its start. Names and notes keep the numbering of the source.

Columns and labels:
[1] = target: HIV-1 Du156.12 Env (HIV-1 Du156.12); experiment: cell-based or functional assay
[2] = target: T1, HIV-1 HxB2 Env (HIV-1 HxB2, UniProt P04578 33-856); experiment: cell-based or functional assay
[3] = target: T1, HIV-1 HxB2 Env; experiment: BN-PAGE mobility shift of HxB2 Env with Fab, relative shift
[4] = target: HIV-1 Du156.12 Env (HIV-1 Du156.12); experiment: cell-based or functional assay; remark: listed apart in the source
[5] = target: T1, HIV-1 HxB2 Env; experiment: cell-based or functional assay; remark: listed apart in the source
[6] = target: HIV-1 Du156.12 Env (HIV-1 Du156.12); experiment: cell-based or functional assay; remark: listed apart in the source
[7] = target: HIV-2 C4 chimera Env (HIV-2 (HIV-1 MPER) chimera); experiment: cell-based or functional assay
[8] = target: HIV-2 C3 chimera Env (HIV-2 (HIV-1 MPER) chimera); experiment: cell-based or functional assay
[9] = target: HIV-2 Env (parental virus of the chimeras) (HIV-2); experiment: cell-based or functional assay
[10] = target: HIV-2 C1 chimera Env (HIV-2 (HIV-1 MPER) chimera); experiment: cell-based or functional assay

B1: PGZL1_gVmDmJ F100A (antibody, V domains shown)
V domain 1: QVQLVQSGAEVKKPGSSVKVSCKASGGTFSSYAISWVRQAPGQGLEWMGGIIPIFGTANYAQKFQGRVTITADKSTSTAYMELSSLRSEDTAVYYCAREGEGWAGKPLRAFEFWGQGTVITVSS
V domain 2: not shown
decrease in neutralization against the parent antibody [1]: > 10 fold | decrease in neutralization against the parent antibody [2]: > 10 fold

B2: PGZL1_gVmDmJ_W99A (antibody, V domains shown)
V domain 1: B1 V domain 1 with W103A, A104F
V domain 2: not shown
decrease in neutralization against the parent antibody [1]: > 10 fold | decrease in neutralization against the parent antibody [2]: > 10 fold

B3: PGZL1_gVgDgJ Fab (Fab, V domains shown)
VH: B1 V domain 1 with A104F, K106E, E112D, F113V
VL: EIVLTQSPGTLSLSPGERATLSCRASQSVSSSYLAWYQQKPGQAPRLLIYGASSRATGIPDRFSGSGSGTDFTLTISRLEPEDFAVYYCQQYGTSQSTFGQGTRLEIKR
binding result [3]: binds

B4: H4K3_SFS28EPE (antibody, V domains shown)
VH: KVQLVQSGAELKKPWSSVRVSCKASGGEPESYAFNWVRQAPGQRLEWLGGIVPLVSSTNYAQRFRGRVTISADRSTSTVYLEMTGLTSADTAVYFCAREGEGWFGRPLRAFEFWGQGTLVTVST
VL: EIVLTQSPGTFALSPGERATLSCRASQSVSGGALAWYQQKAGQAPRLLIYDTSGRATGVPGRFSGSGSETDFSLTISRLEPEDFAVYYCQQYGTSQSTFGQGTRLETR
Fold Increase (neutralization IC50 over H4K3), Du156.12 [4]: 26.3 fold | IC50, neutralization of Du156.12 pseudovirus [4]: 2.89 µg/mL | Fold Increase (neutralization IC50 over H4K3), HxB2 [5]: 16.4 fold | IC50, neutralization of HxB2 pseudovirus [5]: 1.62 µg/mL

B5: H4K3_5M (antibody, V domains shown)
VH: B4 VH with R74P, S75E
VL: B4 VL
Fold Increase (neutralization IC50 over H4K3), Du156.12 [4]: 84.5 fold | IC50, neutralization of Du156.12 pseudovirus [4]: 9.31 µg/mL | Fold Increase (neutralization IC50 over H4K3), HxB2 [5]: 37.7 fold | IC50, neutralization of HxB2 pseudovirus [5]: 3.72 µg/mL

B6: PGZL1.H4K3 (antibody, V domains shown)
VH: B4 VH with E28S, P29F, E30S
VL: B4 VL with D51G
IC50, neutralization of Du156.12 pseudovirus [4]: 0.11 µg/mL | IC50, neutralization of HxB2 pseudovirus [5]: 0.099 µg/mL | IC50 (µg/ml), neutralization of HIV-1 Du156.12 [6]: 0.27 µg/mL | IC50 (µg/ml), neutralization of chimeric virus [7]: 1.17 µg/mL | IC50 (µg/ml), neutralization of chimeric virus [8]: > 10 µg/mL | IC50 (µg/ml), neutralization of HIV-2 [9]: > 10 µg/mL

B7: H4K3_RS73PE (antibody, V domains shown)
VH: B4 VH with E28S, P29F, E30S, R74P, S75E
VL: B4 VL
Fold Increase (neutralization IC50 over H4K3), Du156.12 [4]: 7.4 fold | IC50, neutralization of Du156.12 pseudovirus [4]: 0.814 µg/mL | Fold Increase (neutralization IC50 over H4K3), HxB2 [5]: 3 fold | IC50, neutralization of HxB2 pseudovirus [5]: 0.299 µg/mL

B8: PGZL1 (antibody, V domains shown)
VH: EVQLVQSGGEVKRPGSSVTVSCKATGGTFSTLAFNWVRQAPGQGPEWMGGIVPLFSIVNYGQKFQGRLTIRADKSTTTVFLDLSGLTSADTATYYCAREGEGWFGKPLRAFEFWGQGTVITVSS
VL: DVVMTQSPGTLSLSPGERATLSCRASQSVSGGALAWYQQKPGQAPRLLIYDTSSRPTGVPGRFSGSGSGTDFSLTISRLEPEDFAVYYCQQYGTSQSTFGQGTRLEIK
IC50 (µg/ml), neutralization of HIV-1 Du156.12 [6]: 0.623 µg/mL | IC50 (µg/ml), neutralization of chimeric virus [7]: 2.38 µg/mL | IC50 (µg/ml), neutralization of chimeric virus [8]: > 10 µg/mL | IC50 (µg/ml), neutralization of HIV-2 [9]: > 10 µg/mL | IC50 (µg/ml), neutralization of chimeric virus [10]: 0.98 µg/mL

B9: PGZL1 Fab (Fab, V domains shown)
VH: B8 VH
VL: B8 VL
notes: also called Fab PGZL1
binding result [3]: binds

B10: PGZL1_F100A (antibody, V domains shown)
VH: B8 VH with E1Q, F104A
VL: B8 VL
decrease in neutralization against the parent antibody [1]: > 10 fold | decrease in neutralization against the parent antibody [2]: > 10 fold

B11: PGZL1_W99A (antibody, V domains shown)
VH: B8 VH with E1Q, W103A
VL: B8 VL
decrease in neutralization against the parent antibody [1]: > 10 fold | decrease in neutralization against the parent antibody [2]: > 10 fold
